One data set concerns the target T1, LtrC (phage phi55 ORF34) (Staphylococcus aureus phage phi55, UniProt Q4ZB49 1-133).
T1 sequence: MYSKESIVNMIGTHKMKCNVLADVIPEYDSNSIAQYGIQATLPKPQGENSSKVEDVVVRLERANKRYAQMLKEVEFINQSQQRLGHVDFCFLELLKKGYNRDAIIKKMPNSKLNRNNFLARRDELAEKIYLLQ
Description: EMSA. In general terms: Mobility shift assays separate free from complexed probe on a gel.

Data set [1] has as its target T2, ArpU (phage phiFL2A late transcriptional regulator) (Enterococcus faecalis phage phiFL2A, UniProt D2IZF3 1-155).
T2 sequence: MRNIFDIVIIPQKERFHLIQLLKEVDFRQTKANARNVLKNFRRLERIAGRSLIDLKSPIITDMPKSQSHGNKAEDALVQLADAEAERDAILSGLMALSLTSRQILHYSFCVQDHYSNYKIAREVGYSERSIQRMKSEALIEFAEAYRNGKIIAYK
Description: EMSA.

B1: LtrC wt probe (phi55 repeat region, ORF34wt) (dsDNA)
DNA 1: TTGGCAGAAAAGATTTATCTACTACAGTGACGAAAATGACAAAATGACAGAAATGACGAAAATGACACTATTTTTAAACTGTGAATTAATTTTATATA
DNA 2: TATATAAAATTAATTCACAGTTTAAAAATAGTGTCATTTTCGTCATTTCTGTCATTTTGTCATTTTCGTCACTGTAGTAGATAAATCTTTTCTGCCAA
With B1, the binding result in the data set with LtrC (phage phi55 ORF34) was “binds”.

B2: ArpU wt probe (phiFL2A repeat region) (dsDNA)
DNA 1: TAATTTTGGCGGTTTTTGGCGGAAAGTTGGCGGTTTTATACGAATTTGAGTGCTAATATAGTAATATCGAAAG
DNA 2: CTTTCGATATTACTATATTAGCACTCAAATTCGTATAAAAACCGCCAACTTTCCGCCAAAAAACCGCAAAATTA
With B2, the binding result in data set [1] is listed as “binds”.

The record behind these values is PMC3753634.
